One molecule from article PMC1669761 (Nucleic Acids Research, 2006) can be followed below.

This assay deals with T1, purified His-tagged Smad4 (human, UniProt Q13485 1-552).
T1 sequence (looked up): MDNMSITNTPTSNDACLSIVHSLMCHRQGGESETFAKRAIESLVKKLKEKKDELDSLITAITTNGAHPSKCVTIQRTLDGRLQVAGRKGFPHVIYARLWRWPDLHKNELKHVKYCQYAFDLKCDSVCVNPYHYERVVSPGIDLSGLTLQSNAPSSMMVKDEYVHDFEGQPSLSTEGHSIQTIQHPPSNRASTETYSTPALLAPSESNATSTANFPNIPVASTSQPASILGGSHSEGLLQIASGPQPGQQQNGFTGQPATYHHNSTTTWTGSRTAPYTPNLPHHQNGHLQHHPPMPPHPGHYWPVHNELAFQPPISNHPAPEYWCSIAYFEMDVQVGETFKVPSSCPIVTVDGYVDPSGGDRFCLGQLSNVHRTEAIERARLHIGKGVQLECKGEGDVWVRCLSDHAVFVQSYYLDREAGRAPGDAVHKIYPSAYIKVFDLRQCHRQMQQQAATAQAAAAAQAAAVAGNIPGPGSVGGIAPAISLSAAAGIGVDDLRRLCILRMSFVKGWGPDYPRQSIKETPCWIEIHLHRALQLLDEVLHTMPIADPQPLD
As to the kind of experiment: pull-down.

B1: GST-RBPMS(1–100) (domain or fragment)
chain: not shown
Take B1: the binding result is reported as “binds”.
